Entries after “also recorded” stand apart in the source; their conditions may differ.
Columns and labels:
Format in all cases: cell-based, mouse
[1] = system: mESCs-derived NMPs / NPCs; assay: Bulk RNA-Seq differential expression and qRT-PCR after RA or RA+BMP4 treatment; conditions: AGN193109 added in 10 molar excess with the RA
Experimental: Bulk-RNA sequencing and data processing: Total cell lysate was obtained in buffer RLT (Qiagen) at different time points from three independent differentiations (biological replicates) conducted parallelly. RNA extraction was performed using RNeasy mini kit (Qiagen) and the quality was determined using Agilent Technologies 2100 Bioanalyzer and only samples with a RIN score >8.0 were sequenced. Stranded libraries were constructed using Universal plus mRNA sequencing kit (NuGEN) and sequenced onto 2 lanes of NovaseqS1 to generate 30 million reads/sample. Obtained reads were aligned to the latest mouse reference genome (mm10) using the STAR spliced read aligner. Pearson correlation and principal component analysis (PCA) was performed to determine the similarities among the samples and replicates. Differentially expressed genes were identified using DESeq and EdgeR package on R platform. The candidate genes were selected using cutoff false discovery rate (FDR <0.05) and log fold change (>2). Differentially expressed gene lists were further subjected to Enrichr, Metascape (Zhou et al., 2019) and DAVID functional annotation tools to identify enriched gene ontology (GO) categories.
(§1) Quantitative (a) RT-PCR analysis: RNA was isolated with RNeasy Mini Kit (Qiagen, cat no. 74104), and converted to cDNA using Superscript IV First Strand Synthesis kit (Thermo Fisher Scientific). qRT-PCR was performed using SYBR Green PCR Master Mix (Applied Biosystems) on Roche 480 Lightcycler (Roche). The relative fold expression was calculated using 2-AACt method of comparing the expression of the target gene with that of the housekeeping gene glyceraldehyde 3-phosphate dehydrogenase (Gapdh). All experiments were repeated at least 2-3 times (technical replicates) from at least two independent differentiations (biological replicates), and data is represented as mean±SEM.
We took advantage of the directed differentiation protocols to investigate the unresolved mechanisms by which RA and BMP direct dI fate specification. To further validate the use of a stem cell model, we first assessed the genetic basis of the fate decisions mediated by RA signaling. During the 24 hr pulse of RA at day 3, Pax3 levels gradually increase, while T expression concomitantly declines (FIG. 12A). […] To identify the transcriptional changes occurring during this first commitment step, we performed bulk RNA-Seq at day 3 (NMP state), day 3.25 (early transcriptional response to RA) and day 4 (dP state1) (FIG. 11B).
We hypothesized that the addition of BMP4 to NPCs in dP state1, directs them to a more dorsal dP state, i.e. dP state2 (FIG. 11A). To define the transcriptional changes occurring after BMP4 addition, we performed bulk RNA-Seq at day 4 (dP state1), day 4.25 (early transcriptional response to RA+BMP4) and at day 5 (dP state2) (FIG. 4A). […] 78 genes, out of 411, were common between both time points (FIGS. 4B, 13B). Focusing on these common genes, we identified enriched functional processes using GO analyses. The GO terms included the BMP signaling pathway (FIG. 4C, Table 3), confirming that the analysis identified BMP responsive genes.

Wnt/β-catenin signaling = assay: Inhibition of Wnt/β-catenin signaling during dI differentiation (IHC and RT-qPCR at day 9)
Experimental: (§2) The mouse ESC line, MM13, was routinely maintained in ES cell media (DMEM+20% FBS) with 100u/ml of mouse leukocyte inducing factor (LIF). […] To prepare cells for the differentiation, ESC colonies were dissociated with 0.25% trypsin and plated on gelatin coated plates at 1:10 dilution to reduce MEF transfer. Cells cultured on gelatin coated plates and allowed to proliferate for 1-2 days. To initiate differentiation, cells were plated on 0.1% gelatin coated 24-well CellBIND dishes (Corning) at 20,000 cells/ml density in 0.5 ml/well N2/B27 medium that contains 10 ng/ml basic fibroblast growth factor (bFGF). The N2/B27 medium contains 1:1 portions of Advanced Dulbecco's modified Eagle Media (DMEM) F12 (Hyclone) and Neurobasal media (Thermo Fisher Scientific) supplemented with 0.5×N2, 1×B27 supplement (with Vitamin A), 2 mM L-glutamine, 0.1 mM 2-mercaptoethanol (ME), and 1% BSA. On day 1, small colonies of cells can be observed attached to the bottom of the wells. On day 2, cells were supplemented with 10 ng/ml bFGF and 5 μM CHIR99021 for 24 hours to induce a neuromesodermal identity (Gouti et al., 2014). On day 3, media was changed as follows: for protocol 1, cells were exposed to 100 nM RA for 48 hrs. For protocol 2, 10 ng/ml human recombinant BMP4 (Thermo Fisher Scientific) was added concomitantly with 100 nM RA (RA+BMP4) for 48 hrs. For protocol 3, cells were exposed to 100 nM RA for 24 hrs, followed by a pulse of RA+BMP4 for another 24 hours. To induce terminal differentiation in all three conditions, the medium containing growth factors was replaced with basic N2/B27 medium at day 5, and cell allowed to differentiate to day 9. At the end of the differentiation, the cultures were fixed for immunohistochemical analysis or lysed to obtain RNA for RNA-Seq or quantitative reverse transcriptase PCR analysis.
Immunohistochemistry: For 2d differentiations, adherent cultures were first washed with 1×PBS and fixed with fresh cold 4% PFA for 10 minutes in the well. Following fixation, cultures were washed twice with 1×PBS to remove any remaining PFA. Cells were blocked with 1×PBS with 1% heat inactivated horse serum for 1 hour and primary antibodies are added in the blocking solution for an overnight incubation at 4C. Following washes, species appropriate secondary antibodies (Jackson Immuno Research Laboratories) were added in 1× PBT (PBS+0.1% […]) for 1 hr. The cultures were then washed with 1× PBT to remove traces of secondary antibodies and counterstained with DAPI to stain nuclei. Plates were then imaged on Zeiss LSM800 inverted confocal microscope at 10× magnification.
as §1
To assess the role of canonical Wnt signaling in dI fate specification, we added endo-IWR1 (IWR1e), a small molecule inhibitor which blocks p-catenin function (Chen et al., 2009) to dPs from day 4-6 (FIG. 5A). By day 9, the RA+BMP4 condition robustly induces dlis-dI3s (FIG. 5F-51, 5N-5P).

[2] = system: mESCs derived spinal NPCs; assay: Sufficiency of Wnt ligands or CHIR for dI fates (RT-qPCR at day 9); conditions: for identity of the BMP4-mediated dI fates (Lhx2, Foxd3, IsI2): RA+BMP4 protocol, Wnts 100 ng/ml or CHIR 5 μM for 24 hrs at day 5; for induction of BMP4 dependent dI fates (Lhx2, Foxd3, IsI1): added with RA at day 4 for 24 hrs, Wnts 100 ng/ml, CHIR 5 μM
Experimental: as §2, §1
We assessed these models, first by determining the effect of canonical Wnts (Wnt1, Wnt2, and Wnt3a), a non-canonical Wnt (Wnt9b) and a small molecule Wnt agonist (CHIR99021) on dI identity in the RA±BMP4 protocols. When Wnts were added in combination with RA, they were unable to induce the dorsal-most dIs by day 9 (FIG. 14A). […] Thus, Wnts are not sufficient to direct dI fate identity.

[3] = inhibitor added to RA+BMP4 (protocol 3) from day 4, 48 hours, day 9

Molecule: Cc1ccc(C2=CCC(C)(C)c3ccc(C#Cc4ccc(C(=O)O)cc4)cc32)cc1 [AGN193109]
- upregulation of the RA-induced genes [1]: not upregulated

Molecule: O=C(Nc1cccc2cccnc12)c1ccc(N2C(=O)[C@@H]3[C@H](C2=O)[C@@H]2C=C[C@H]3C2)cc1 [IWR1e]
- dI1 and dI2 differentiation (Wnt/β-catenin signaling; [3]): loss of dI1s and dI2s; also recorded: dramatic reduction in the dI1 and dI2 populations; also recorded: most strongly suppresses the differentiation of the BMP4-dependent dI1/dI2s
- dI3 differentiation (Wnt/β-catenin signaling; [3]): dI3 differentiation was less affected; also recorded: modest increase in dI3s; also recorded: more modest effect on dI3s
- dI4, dI5, dI6 fates (Wnt/β-catenin signaling; [3]): no suppression of Pax2+dI4/dI6 and Lmx1b+dI5 fates; also recorded: concomitant increases in dI4, dI5 and dI6s; also recorded: increase in the expression of dI4-dI6 specific genes
- dP markers Pax3, Pax7, Olig3 (Wnt/β-catenin signaling; inhibitor added to RA+BMP4 condition): did not erode Pax3+pan-dorsal identity or Pax7 expression, but nevertheless did suppress Olig3; also recorded: prevents both the suppression of Pax7+dPs and induction of Olig3+dPs

B1: Wnt1: human recombinant Wnt1, canonical Wnt (protein, UniProt P04628 28-370, looked up)
Proto-oncogene Wnt-1: ANSSGRWWGIVNVASSTNLLTDSKSLQLVLEPSLQLLSRKQRRLIRQNPGILHSVSGGLQSAVRECKWQFRNRRWNCPTAPGPHLFGKIVNRGCRETAFIFAITSAGVTHSVARSCSEGSIESCTCDYRRRGPGGPDWHWGGCSDNIDFGRLFGREFVDSGEKGRDLRFLMNLHNNEAGRTTVFSEMRQECKCHGMSGSCTVRTCWMRLPTLRAVGDVLRDRFDGASRVLYGNRGSNRASRAELLRLEPEDPAHKPPSPHDLVYFEKSPNFCTYSGRLGTAGTAGRACNSSSPALDGCELLCCGRGHRTRTQRVTERCNCTFHWCCHVSCRNCTHTRVLHECL
- identity of the BMP4-mediated dI fates (Lhx2, Foxd3, IsI2) [2]: no significant effect
- induction of BMP4 dependent dI fates (Lhx2, Foxd3, IsI1) [2]: neither canonical Wnts (Wnt1, Wnt2, Wnt3a, Wnt4, all at 100 ng/ml) nor a non-canonical Wnt ligand (Wnt9b) induce the BMP4 dependent dI fates

B2: Wnt3a: human recombinant Wnt3a, canonical Wnt (protein, UniProt P56704 19-352, looked up)
Protein Wnt-3a: SYPIWWSLAVGPQYSSLGSQPILCASIPGLVPKQLRFCRNYVEIMPSVAEGIKIGIQECQHQFRGRRWNCTTVHDSLAIFGPVLDKATRESAFVHAIASAGVAFAVTRSCAEGTAAICGCSSRHQGSPGKGWKWGGCSEDIEFGGMVSREFADARENRPDARSAMNRHNNEAGRQAIASHMHLKCKCHGLSGSCEVKTCWWSQPDFRAIGDFLKDKYDSASEMVVEKHRESRGWVETLRPRYTYFKVPTERDLVYYEASPNFCEPNPETGSFGTRDRTCNVSSHGIDGCDLLCCGRGHNARAERRREKCRCVFHWCCYVSCQECTRVYDVHTCK
- identity of the BMP4-mediated dI fates (Lhx2, Foxd3, IsI2) [2]: no significant effect
- induction of BMP4 dependent dI fates (Lhx2, Foxd3, IsI1) [2]: neither canonical Wnts (Wnt1, Wnt2, Wnt3a, Wnt4, all at 100 ng/ml) nor a non-canonical Wnt ligand (Wnt9b) induce the BMP4 dependent dI fates

B3: Wnt2: human recombinant Wnt2, canonical Wnt (protein, UniProt P09544 26-360, looked up)
Protein Wnt-2: SWWYMRATGGSSRVMCDNVPGLVSSQRQLCHRHPDVMRAISQGVAEWTAECQHQFRQHRWNCNTLDRDHSLFGRVLLRSSRESAFVYAISSAGVVFAITRACSQGEVKSCSCDPKKMGSAKDSKGIFDWGGCSDNIDYGIKFARAFVDAKERKGKDARALMNLHNNRAGRKAVKRFLKQECKCHGVSGSCTLRTCWLAMADFRKTGDYLWRKYNGAIQVVMNQDGTGFTVANERFKKPTKNDLVYFENSPDYCIRDREAGSLGTAGRVCNLTSRGMDSCEVMCCGRGYDTSHVTRMTKCGCKFHWCCAVRCQDCLEALDVHTCKAPKNADWTTAT
- identity of the BMP4-mediated dI fates (Lhx2, Foxd3, IsI2) [2]: no significant effect
- induction of BMP4 dependent dI fates (Lhx2, Foxd3, IsI1) [2]: neither canonical Wnts (Wnt1, Wnt2, Wnt3a, Wnt4, all at 100 ng/ml) nor a non-canonical Wnt ligand (Wnt9b) induce the BMP4 dependent dI fates

B4: Wnt9b: mouse recombinant Wnt9b, non-canonical Wnt ligand (protein, UniProt O35468 24-359, looked up)
Protein Wnt-9b: AAYFGLTGREVLTPFPGLGTAAAPAQAGAHLKQCDLLKLSRRQKQLCRREPGLAETLRDAAHLGLLECQFQFRQERWNCSLEGRTGLLQRGFKETAFLYAVSAAALTHALARACSAGRMERCTCDDSPGLESRQAWQWGVCGDNLKYSTKFLSNFLGPKRGSKDLRARADAHNTHVGIKAVKSGLRTTCKCHGVSGSCAVRTCWKQLSPFRETGQVLKLRYDTAVKVSSATNEALGRLELWAPAKPGGPAKGLAPRPGDLVYMEDSPSFCRPSKYSPGTAGRVCSRDSSCSSLCCGRGYDTQSRMVVFSCHCQVQWCCYVECQQCAQQELVYTCKR
- identity of the BMP4-mediated dI fates (Lhx2, Foxd3, IsI2) [2]: no significant effect
- induction of BMP4 dependent dI fates (Lhx2, Foxd3, IsI1) [2]: neither canonical Wnts (Wnt1, Wnt2, Wnt3a, Wnt4, all at 100 ng/ml) nor a non-canonical Wnt ligand (Wnt9b) induce the BMP4 dependent dI fates

B5: Wnt4: mouse recombinant Wnt4 (protein, UniProt P22724 23-351, looked up)
Protein Wnt-4: SNWLYLAKLSSVGSISEEETCEKLKGLIQRQVQMCKRNLEVMDSVRRGAQLAIEECQYQFRNRRWNCSTLDSLPVFGKVVTQGTREAAFVYAISSAGVAFAVTRACSSGELEKCGCDRTVHGVSPQGFQWSGCSDNIAYGVAFSQSFVDVRERSKGASSSRALMNLHNNEAGRKAILTHMRVECKCHGVSGSCEVKTCWRAVPPFRQVGHALKEKFDGATEVEPRRVGSSRALVPRNAQFKPHTDEDLVYLEPSPDFCEQDIRSGVLGTRGRTCNKTSKAIDGCELLCCGRGFHTAQVELAERCGCRFHWCCFVKCRQCQRLVEMHTCR
- identity of the BMP4-mediated dI fates (Lhx2, Foxd3, IsI2) [2]: no significant effect
- induction of BMP4 dependent dI fates (Lhx2, Foxd3, IsI1) [2]: neither canonical Wnts (Wnt1, Wnt2, Wnt3a, Wnt4, all at 100 ng/ml) nor a non-canonical Wnt ligand (Wnt9b) induce the BMP4 dependent dI fates

— patent publication US20260275280A1, “DIRECTED DIFFERENTIATION PROTOCOLS TO DERIVE BONE FIDE SPINAL SENSORY INTERNEURONS” (THE REGENTS OF THE UNIVERSITY OF CALIFORNIA, priority 2022, published 2026)
